Like-named read-outs stand apart in the source and are kept apart here.
Columns and labels:
Assay in all cases: BLI
[1] = molecular target: T1, human FcRIIA protein (MednaBio, E1033) (human, UniProt P12318 34-218, limits assumed)
T1 construct: Bought; also called FcγRIIA
T1 sequence (looked up): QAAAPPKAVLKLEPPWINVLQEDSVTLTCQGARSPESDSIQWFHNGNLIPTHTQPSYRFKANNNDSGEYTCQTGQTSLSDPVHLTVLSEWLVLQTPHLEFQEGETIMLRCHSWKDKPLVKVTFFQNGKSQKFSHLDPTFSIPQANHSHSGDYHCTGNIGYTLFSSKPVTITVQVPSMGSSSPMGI
Summary of the method: (§1)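 On an Octet Red96 System, anti-penta-HIS biosensors loaded with commercial human Fc receptor proteins were dipped into test IgG diluted 1:3 over 8 points from 300 nM. Fcγ receptor runs used pH 7.2 and FcRn runs used pH 6. Global fitting of these biolayer interferometry data gave the values for Kd, kon and koff, using a 1:1 binding model.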

[2] = molecular target: T1, human FcRIIA protein (MednaBio, E1033); remark: listed apart in the source
[3] = molecular target: T2, human FcRIIB/C protein (MednaBio, E1034) (human, UniProt P31994 43-217, limits assumed)
T2 construct: Bought as FcRIIB/C; also called FcγRIIB; CD32B
T2 sequence (looked up): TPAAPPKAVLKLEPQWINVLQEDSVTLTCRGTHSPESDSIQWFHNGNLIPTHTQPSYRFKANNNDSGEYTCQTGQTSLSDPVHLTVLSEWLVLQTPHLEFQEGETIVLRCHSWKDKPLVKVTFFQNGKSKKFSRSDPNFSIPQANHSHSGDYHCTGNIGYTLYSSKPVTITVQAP

[4] = molecular target: T3, human FcRI protein (MednaBio, E1031) (human, UniProt P12314 16-288, limits assumed)
T3 construct: Bought; loaded on anti-penta-HIS biosensors; also called FcγRI
T3 sequence (P12314 16-288 limits assumed): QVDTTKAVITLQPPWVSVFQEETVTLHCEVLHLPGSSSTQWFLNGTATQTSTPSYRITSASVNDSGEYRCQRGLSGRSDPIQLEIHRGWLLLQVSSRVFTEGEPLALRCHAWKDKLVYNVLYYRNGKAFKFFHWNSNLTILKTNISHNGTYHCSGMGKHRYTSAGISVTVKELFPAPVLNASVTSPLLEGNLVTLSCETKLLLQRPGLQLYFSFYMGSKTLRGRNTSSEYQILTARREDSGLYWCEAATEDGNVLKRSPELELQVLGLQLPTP

[5] = molecular target: T4, human FcRn protein (MednaBio, E1032) (human, UniProt P55899 24-297; P61769 21-119)
T4 construct: Bought; assays at pH 6
T4 sequence (P55899 24-297 limits assumed, form in doubt, chain 1 of 2): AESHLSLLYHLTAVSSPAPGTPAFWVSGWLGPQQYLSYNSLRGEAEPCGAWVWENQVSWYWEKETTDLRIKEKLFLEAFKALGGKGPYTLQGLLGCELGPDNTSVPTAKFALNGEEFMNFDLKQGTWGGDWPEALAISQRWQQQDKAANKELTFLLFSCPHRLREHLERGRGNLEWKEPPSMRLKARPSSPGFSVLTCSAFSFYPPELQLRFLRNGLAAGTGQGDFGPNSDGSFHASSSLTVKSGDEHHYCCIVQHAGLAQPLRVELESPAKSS
T4 sequence (P61769 21-119 limits assumed, form in doubt, chain 2 of 2): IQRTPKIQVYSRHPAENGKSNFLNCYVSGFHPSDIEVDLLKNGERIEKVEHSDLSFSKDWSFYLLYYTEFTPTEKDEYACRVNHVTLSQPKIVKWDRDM

[6] = molecular target: T5, human FcRIIIA-V158 protein (MednaBio, E1035) (human, UniProt P08637 17-208)
T5 construct: Bought; also called FcγRIIIA(V); FcgRIIIA(V)
T5 sequence (P08637 17-208 F176V): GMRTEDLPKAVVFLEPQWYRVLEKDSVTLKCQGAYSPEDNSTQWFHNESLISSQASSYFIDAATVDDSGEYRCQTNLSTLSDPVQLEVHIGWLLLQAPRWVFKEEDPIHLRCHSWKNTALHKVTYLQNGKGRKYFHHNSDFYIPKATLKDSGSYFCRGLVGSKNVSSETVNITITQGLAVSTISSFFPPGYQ

[7] = molecular target: T1, human FcRIIA protein (MednaBio, E1033); remark: listed apart in the source
[8] = molecular target: T2, human FcRIIB/C protein (MednaBio, E1034); remark: listed apart in the source
[9] = molecular target: T3, human FcRI protein (MednaBio, E1031); remark: listed apart in the source
[10] = molecular target: T4, human FcRn protein (MednaBio, E1032); remark: listed apart in the source
[11] = molecular target: T5, human FcRIIIA-V158 protein (MednaBio, …); remark: listed apart in the source
[12] = molecular target: T1, human FcRIIA protein (MednaBio, E1033); remark: listed apart in the source
Summary of the method: as §1

[13] = molecular target: T2, human FcRIIB/C protein (MednaBio, E1034); remark: listed apart in the source
Summary of the method: as §1

[14] = molecular target: T3, human FcRI protein (MednaBio, E1031); remark: listed apart in the source
Summary of the method: as §1

[15] = molecular target: T4, human FcRn protein (MednaBio, E1032); remark: listed apart in the source
Summary of the method: as §1

[16] = molecular target: T5, human FcRIIIA-V158 protein (MednaBio, …); remark: listed apart in the source
Summary of the method: as §1

B1: wild-type human IgG1 control (antibody)
heavy: not shown
light: SYELTQPPSVSVSPGQTASITCSGDNIGDQYAHWYQQKPGQSPVLVIYQDKNRPSGIPERFSGSNSGNTATLTISGTQAMDEADYYCATYTGFGSLAVFGGGTKLTVLGQPKAAPSVTLFPPSSEELQANKATLVCLISDFYPGAVTVAWKADSSPVKAGVETTTPSKQSNNKYAASSYLSLTPEQWKSHRSYSCQVTHEGSTVEKTVAPTECS
notes: Control IgG
Kd [1]: 56 nM
koff [1]: 0.032 s⁻¹
kon [1]: 570000 M⁻¹ s⁻¹
Kd [2]: 56 nM
koff [2]: 0.032 s⁻¹
kon [2]: 570000 M⁻¹ s⁻¹
Kd [3]: 130 nM
koff [3]: 0.016 s⁻¹
kon [3]: 120000 M⁻¹ s⁻¹
Kd [4]: 5.6 nM
koff [4]: 0.0012 s⁻¹
kon [4]: 220000 M⁻¹ s⁻¹
Kd [5]: 16 nM
koff [5]: 0.008 s⁻¹
kon [5]: 480000 M⁻¹ s⁻¹
Kd [6]: 60 nM
koff [6]: 0.027 s⁻¹
kon [6]: 450000 M⁻¹ s⁻¹
Kd [7]: 56 nM
koff [7]: 0.032 s⁻¹
kon [7]: 570000 M⁻¹ s⁻¹
Kd [8]: 130 nM
koff [8]: 0.016 s⁻¹
kon [8]: 120000 M⁻¹ s⁻¹
Kd [9]: 5.6 nM
koff [9]: 0.0012 s⁻¹
kon [9]: 220000 M⁻¹ s⁻¹
Kd [10]: 16 nM
koff [10]: 0.008 s⁻¹
kon [10]: 480000 M⁻¹ s⁻¹
Kd [11]: 60 nM
koff [11]: 0.027 s⁻¹
kon [11]: 450000 M⁻¹ s⁻¹
Kd [12]: 56 nM
koff [12]: 0.032 s⁻¹
kon [12]: 570000 M⁻¹ s⁻¹
Kd [13]: 130 nM
koff [13]: 0.016 s⁻¹
kon [13]: 120000 M⁻¹ s⁻¹
Kd [14]: 5.6 nM
koff [14]: 0.0012 s⁻¹
kon [14]: 220000 M⁻¹ s⁻¹
Kd [15]: 16 nM
koff [15]: 0.008 s⁻¹
kon [15]: 480000 M⁻¹ s⁻¹
Kd [16]: 60 nM
koff [16]: 0.027 s⁻¹
kon [16]: 450000 M⁻¹ s⁻¹

B2: wild-type human IgG4 control (antibody)
heavy: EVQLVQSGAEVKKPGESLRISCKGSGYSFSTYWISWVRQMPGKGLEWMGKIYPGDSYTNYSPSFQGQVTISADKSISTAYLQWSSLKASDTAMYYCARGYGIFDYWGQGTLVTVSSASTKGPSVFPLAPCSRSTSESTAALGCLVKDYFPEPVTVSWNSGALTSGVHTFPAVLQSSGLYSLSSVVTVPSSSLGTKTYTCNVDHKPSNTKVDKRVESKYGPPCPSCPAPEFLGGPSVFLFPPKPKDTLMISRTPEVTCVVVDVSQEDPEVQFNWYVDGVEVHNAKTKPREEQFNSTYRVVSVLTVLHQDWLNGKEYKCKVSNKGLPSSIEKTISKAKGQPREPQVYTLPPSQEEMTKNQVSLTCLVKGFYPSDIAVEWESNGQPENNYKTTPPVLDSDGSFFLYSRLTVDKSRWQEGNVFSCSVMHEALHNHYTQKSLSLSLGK
light: SYELTQPPSVSVSPGQTASITCSGDNIGDQYAHWYQQKPGQSPVLVIYQDKNRPSGIPERFSGSNSGNTATLTISGTQAMDEADYYCATYTGFGSLAVFGGGTKLTVLGQPKAAPSVTLFPPSSEELQANKATLVCLISDFYPGAVTVAWKADSSPVKAGVETTTPSKQSNNKYAASSYLSLTPEQWKSHRSYSCQVTHEGSTVEKTVAPTECS
notes: Control IgG
Kd [1]: 400 nM
koff [1]: 0.055 s⁻¹
kon [1]: 140000 M⁻¹ s⁻¹
Kd [2]: 400 nM
koff [2]: 0.055 s⁻¹
kon [2]: 140000 M⁻¹ s⁻¹
Kd [3]: 400 nM
koff [3]: 0.05 s⁻¹
kon [3]: 140000 M⁻¹ s⁻¹
Kd [4]: 4.8 nM
koff [4]: 0.0017 s⁻¹
kon [4]: 360000 M⁻¹ s⁻¹
Kd [5]: 18 nM
koff [5]: 0.012 s⁻¹
kon [5]: 640000 M⁻¹ s⁻¹
Kd [6]: 550 nM
koff [6]: 0.092 s⁻¹
kon [6]: 170000 M⁻¹ s⁻¹
Kd [7]: 400 nM
koff [7]: 0.055 s⁻¹
kon [7]: 140000 M⁻¹ s⁻¹
Kd [8]: 400 nM
koff [8]: 0.05 s⁻¹
kon [8]: 140000 M⁻¹ s⁻¹
Kd [9]: 4.8 nM
koff [9]: 0.0017 s⁻¹
kon [9]: 360000 M⁻¹ s⁻¹
Kd [10]: 18 nM
koff [10]: 0.012 s⁻¹
kon [10]: 640000 M⁻¹ s⁻¹
Kd [11]: 550 nM
koff [11]: 0.092 s⁻¹
kon [11]: 170000 M⁻¹ s⁻¹
Kd [12]: 400 nM
koff [12]: 0.055 s⁻¹
kon [12]: 140000 M⁻¹ s⁻¹
Kd [13]: 400 nM
koff [13]: 0.05 s⁻¹
kon [13]: 140000 M⁻¹ s⁻¹
Kd [14]: 4.8 nM
koff [14]: 0.0017 s⁻¹
kon [14]: 360000 M⁻¹ s⁻¹
Kd [15]: 18 nM
koff [15]: 0.012 s⁻¹
kon [15]: 640000 M⁻¹ s⁻¹
Kd [16]: 550 nM
koff [16]: 0.092 s⁻¹
kon [16]: 170000 M⁻¹ s⁻¹
